For data set [1], the target named is T1, murine lipopolysaccharide binding protein (mLBP-His6) (Mus musculus, UniProt Q61805 25-481).
T1 sequence: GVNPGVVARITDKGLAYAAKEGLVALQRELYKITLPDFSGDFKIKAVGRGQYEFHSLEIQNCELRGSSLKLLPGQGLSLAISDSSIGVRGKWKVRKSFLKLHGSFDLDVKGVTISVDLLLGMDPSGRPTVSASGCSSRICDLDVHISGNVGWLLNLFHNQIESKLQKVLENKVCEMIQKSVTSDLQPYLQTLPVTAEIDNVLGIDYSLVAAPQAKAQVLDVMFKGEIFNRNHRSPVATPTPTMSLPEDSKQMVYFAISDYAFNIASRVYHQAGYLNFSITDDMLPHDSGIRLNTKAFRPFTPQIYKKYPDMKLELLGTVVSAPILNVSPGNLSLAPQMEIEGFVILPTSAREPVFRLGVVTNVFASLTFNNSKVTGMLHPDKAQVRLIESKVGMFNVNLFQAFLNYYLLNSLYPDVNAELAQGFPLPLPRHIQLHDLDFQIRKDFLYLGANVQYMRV
In words: nitrocellulose filter binding; affinity comparable to A011, among the best binders (screen range about 200-800 nM); 140 mM NaCl, 2.7 mM KCl, 10 mM Na2HPO4, 1.76 mM KH2PO4, 2 mM MgCl2; pH not stated; 37 °C, 1 h; RNA refolded; mLBP 15-1000 nM. To be noted: protein: recombinant; tags: C-terminal His6; label: 32P; three-helix junction (predicted).

The target in data set [2] is T1, murine lipopolysaccharide binding …. Put plainly: boundary experiment, nitrocellulose filter retention; 200 or 400 nM mLBP; no apparent effect on affinity; 140 mM NaCl, 2.7 mM KCl, 10 mM Na2HPO4, 1.76 mM KH2PO4, 2 mM MgCl2; pH not stated; 37 °C, 1 h; RNA refolded; mLBP 15-1000 nM. The conditions noted are these: protein: recombinant; tags: C-terminal His6; label: 5' 32P; P1 pairs U6-G11 with C65-A70.

In data set [3] the target is EF-Tu (Thermus thermophilus, UniProt Q5SHN6 2-406). In words: nitrocellulose filter binding; 140 mM NaCl, 2.7 mM KCl, 10 mM Na2HPO4, 1.76 mM KH2PO4, 2 mM MgCl2; pH not stated; 37 °C, 1 h; RNA refolded; mLBP 15-1000 nM. To be noted: label: 32P (internal or 5'); three-helix junction, helices P1-P4.
The target of data set [4] is T1, murine lipopolysaccharide binding …. In words: nitrocellulose filter binding; 2 mM MgCl2; 140 mM NaCl, 2.7 mM KCl, 10 mM Na2HPO4, 1.76 mM KH2PO4, 2 mM MgCl2; pH not stated; 37 °C, 1 h; RNA refolded; mLBP 15-1000 nM. The conditions noted are these: protein: recombinant; tags: C-terminal His6; label: 32P (internal or 5'); three-helix junction, helices P1-P4.
Data set [5] shares this target. In words: 140 mM NaCl, 2.7 mM KCl, 10 mM Na2HPO4, 1.76 mM KH2PO4, 2 mM MgCl2; pH not stated; 37 °C, 1 h; RNA refolded; mLBP 15-1000 nM. The conditions noted are these: protein: recombinant; tags: C-terminal His6; three-helix junction.

Chain of EF-Tu (Q5SHN6 2-406): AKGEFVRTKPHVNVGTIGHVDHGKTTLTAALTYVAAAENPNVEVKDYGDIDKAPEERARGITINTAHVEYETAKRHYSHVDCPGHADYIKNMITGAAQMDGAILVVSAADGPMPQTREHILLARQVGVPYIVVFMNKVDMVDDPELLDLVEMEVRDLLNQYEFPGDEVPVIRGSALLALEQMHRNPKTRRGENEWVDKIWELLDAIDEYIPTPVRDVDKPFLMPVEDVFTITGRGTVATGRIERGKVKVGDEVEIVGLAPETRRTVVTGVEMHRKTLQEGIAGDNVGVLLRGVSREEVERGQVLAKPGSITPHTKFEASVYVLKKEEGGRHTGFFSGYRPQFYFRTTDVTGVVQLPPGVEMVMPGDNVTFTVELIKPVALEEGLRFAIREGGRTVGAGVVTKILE

B1: A036 (XNA)
RNA: GGGAAUUCGAGCUCGGUACCGAUAUACGGUGCCGCUUCUCUAACCGGUGGUCAUGCGGUUGGACGCUCGAACAGACUACUGCAGGCAUGCAAGCUUGG
modifications: 2'-fluoro C and U
B1: the binding result in data set [1] is “binds”.

B2: A011 1-70 (3' boundary fragment) (XNA)
RNA: GGGAAUUCGAGCUCGGUACCGGACUGUGGAUUGUUCUGGGUGCCGCUUCUCCGAAUAUCGGACUCUCGAA
modifications: 2'-fluoro C and U
Regarding B2, in data set [2], the binding result is “binds”.

B3: A011 (XNA)
RNA: GGGAAUUCGAGCUCGGUACCGGACUGUGGAUUGUUCUGGGUGCCGCUUCUCCGAAUAUCGGACUCUCGAACUCCUGGGGACUGCAGGCAUGCAAGCUUGG
modifications: 2'-fluoro C and U (all pyrimidines); A and G ribo
One may read the Kd as the equilibrium constant for the complex coming apart. As to B3, the binding result in data set [3] is reported as “no binding”. For the same molecule, the Kd in data set [4] turned out to be 267 nM.

B4: A011 del 76-100 (XNA)
RNA: GGGAAUUCGAGCUCGGUACCGGACUGUGGAUUGUUCUGGGUGCCGCUUCUCCGAAUAUCGGACUCUCGAACUCCU
modifications: 2'-fluoro C and U
As to B4, the binding signal in data set [5] is ~5 fold reduction in affinity vs A011.
